# Test results taken from PMC2901266.
# Tests used:
# [1] = target: ToLCKeV MBP-AC3 fusion protein (Tomato leaf curl Kerala virus-[India:Kerala II:2005]); assay: sucrose gradient ultracentrifugation + SEC; 10-40% (w/v) sucrose step gradient, 25 mM Tris (pH 8.0), 250 mM NaCl, 2 mM sodium bisulphite, 0.05% Triton X-100, 35,000 rpm 20 h 4°C, against mass markers; gel filtration on Superdex 200 5/150
# [2] = target: ToLCKeV MBP-AC1 fusion protein (replication initiator protein, Rep) (Tomato leaf curl Kerala virus-[India:Kerala II:2005])
substance,measurement,setting,value
ToLCKeV MBP-AC3 fusion protein (natural protein),stoichiometry N,[1],12 to 14 mer
same,"ATPase activity of AC1 (Rep), release of Pi from [gamma-32P]ATP, with varying MBP-AC3 (increase at 0.02-0.2 pM, reduced at higher AC3: bell shaped curve); increase over Rep alone set as 100%",[2],80%
